In patent US10507233B2, “Universal N-glycan binding reagent” (New England Biolabs, Inc., priority 2014, dated 2019):
Positions count from the first letter of the chain named. In names and notes the source's numbering stands. Like-named read-outs stand apart in the source and are kept apart here.

Experiments:
[1] = biological target: T1, SNAP-Fbs (SNAP-wtFbs): human Fbs sugar binding domain, positions 113 to 296, wild type, SEQ ID NO: 2, fused to SNAP-tag (AGT variant, SEQ ID NO: 4), fusion SEQ ID NO: 3 (Homo sapiens, UniProt Q9UK22); experiment: Isothermal titration calorimetry of glycan / sialylglycopeptide binding to SNAP-Fbs in solution; settings: ITC, low salt buffer (50 mM NaCl, 20 mM Tris-HCl, 1 mM EDTA, pH 7.5), 90 μM glycan into 9 μM Fbs, single site binding model
T1 construct: made in house; host or cells: E. coli, pSNAP-tag(T7)-2 vector
T1 sequence (Q9UK22 with tags, fused parts or gaps): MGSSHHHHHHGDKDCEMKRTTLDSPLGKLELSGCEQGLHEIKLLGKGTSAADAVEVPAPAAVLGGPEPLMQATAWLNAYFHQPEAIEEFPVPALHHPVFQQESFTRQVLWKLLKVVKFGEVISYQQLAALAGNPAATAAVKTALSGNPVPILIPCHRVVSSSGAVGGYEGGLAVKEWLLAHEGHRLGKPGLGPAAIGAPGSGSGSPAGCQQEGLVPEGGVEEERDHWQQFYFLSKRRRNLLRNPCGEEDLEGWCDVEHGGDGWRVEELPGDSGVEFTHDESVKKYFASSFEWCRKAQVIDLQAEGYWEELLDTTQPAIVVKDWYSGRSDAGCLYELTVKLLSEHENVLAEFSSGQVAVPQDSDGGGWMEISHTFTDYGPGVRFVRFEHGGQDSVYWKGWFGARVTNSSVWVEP
Protocol: Fbs binds to N-glycan and N-glycan with fucose modification at the reducing end of GlcNAc. Isothermal titration calorimetry was used to assay the interaction between Fbs and core structure glycans. Man3GlcNAc2 (M3N2) and Man3GlcNAc2 with (alpha 1-6) fucose modification at the reducing end of GlcNAc (M3N2F) were used as binding substrates (both substrates were purchased from Prozyme, Hayward, Calif. SNAP-Fbs was dialysed against low salt buffer and the glycans were also dissolved in the same dialysis buffer. A Nano ITC instrument (TA Instruments, Lindon, Utah) with 170 μl cell volume and 50 μl buret volume was used. Every 300 seconds, 2.97 μl of 90 μM glycan was automatically injected into 9 μM Fbs solution. The data was fitted using a single site binding model (Nanoanalyze software (TA Instruments, Lindon, Utah)), and the Kd was calculated.
Isothermal titration calorimetry analysis of SGP (Fushimi Pharmaceutical Co., Marugame, Japan) binding to SNAP-Fbs. SNAP-Fbs was dialysed against low salt buffer and SGP was also dissolved in the same low salt buffer. A Nano ITC instrument with 170 μl cell volume and 50 μl buret volume was used. Every 300 seconds, 2.97 μl of 270 μM SGP was automatically injected into 27 μM Fbs solution. The data was fitted using a single site binding model (Nanoanalyze software), and Kd was calculated. […]

[2] = Binding of 2-AB labeled M3N2 to SNAP-Fbs beads; settings: low salt buffer, versus SNAP control beads
Source text: When PNGase F is used to trim N-glycans away from the peptides or proteins, the terminal GlcNAc residue becomes available for modification. A common modification is fluorophore labeling using 2-AB dye. The primary amino group of the dye performs a nucleophilic attack on the carbonyl carbon of the acyclic reducing terminal residue to form a partially stable Schiff's base. […] The conserved terminal GlcNAc residue is thus referred to as the “reducing end” of a glycan species. Upon 2-AB labeling, the carbohydrate ring structure is no longer capable of forming. Fifty picomoles of 2-AB labeled M3N2 in low salt buffer were incubated with SNAP-Fbs beads or SNAP control beads (SNAP Capture beads conjugated to SNAP-tag Purified Protein, New England Biolabs, Ipswich, Mass.).

[3] = biological target: T2, RNase B tryptic digest spiked with SGP (Homo sapiens, UniProt Q9UK22); experiment: Enrichment of N-glycopeptides from RNase B tryptic digest spiked with SGP (LC-MS); assay type: binding; settings: low salt or high salt volatile buffer, TIC
T2 construct: His6 (N); made in house; host or cells: E. coli
T2 sequence (Q9UK22 with tags, fused parts or gaps): T1 sequence (Q9UK22 with tags, fused parts or gaps)
Source text: Fbs beads were used to capture and enrich N-glycopeptides from a complex mixture. The complex mixture was a tryptic digest of RNase B spiked with SGP to serve as a complex, sialylated glycopeptide. RNase B contains several non-glycosylated peptides and several different high mannose N-glycopeptides (labeled in the enlargement as: M5N2, M6N2). One hundred eighty-five micrograms RNase B was digested with 4 micrograms trypsin (New England Biolabs, Ipswich, Mass.) in trypsin digestion buffer and then filtered with a 10 kDa Microcon 10 centrifugal filter unit (Millipore, Billerica, Mass.) to remove trypsin and any undigested RNase B. PMSF (1 mM final concentration) was added to inhibit any residual trypsin. 100 micrograms SGP was added to the RNase B digest. Then immobilized binding reagent, SNAP-Fbs beads in this example, was mixed with the complex mixture and incubated at 4° C. for 1 hour in the presence of either low salt volatile buffer or high salt volatile buffer. The beads were washed with low salt volatile buffer or high salt volatile buffer, respectively. The bound N-glycopeptides were eluted using 50% acetonitrile, then lyophilized and analyzed by mass spec (LC-MS method). […] The dotted line indicates the chromatogram of the input mixture without enrichment. […]
The different peptides and N-glycopeptides present in the complex mixture described in Example 11 were quantified.

[4] = biological target: T3, SGP-TMR (Homo sapiens, UniProt Q9UK22); experiment: Elution of bound SGP-TMR from Fbs beads; settings: 100 ul 2 M ammonium bicarbonate
T3 construct: His6 (N); made in house; host or cells: E. coli
T3 sequence (Q9UK22 with tags, fused parts or gaps): T1 sequence (Q9UK22 with tags, fused parts or gaps)
Protocol: N-glycan linked glycomolecules reversibly binds to Fbs beads. Different reagents were tested for releasing bound N-linked glycopeptides from Fbs beads. 100 μl Fbs beads with bound SGP-TMR were collected, washed with 300 μl low salt binding buffer once, and divided into three aliquots (30 μl beads each aliquot). 100 ul of 2 M ammonium bicarbonate (NH4HCO3), 50% acetonitrile, or 1% acetic acid were added to Fbs beads with bound SGP-TMR to elute SGP-TMR. The beads were centrifuged and supernatants were collected. The solvent in the supernatant was removed by vacuum evaporation using a speedvac, and SGP-TMR was reconstituted in low salt buffer. SGP-levels were measured as described in Example 9. […] 1% Acetic acid released approximately 65% of SGP-TMR. In contrast, less than 30% of bound N-glycan linked glycomolecules were released with 2 M ammonium bicarbonate.

[5] = system: Fetuin and RNase B; experiment: Pull-down of Fetuin and RNase B mixture by immobilized Fbs beads; assay type: binding; settings: input defined as 1
Protocol: The same amount of wild-type Fbs, Fbs GYR mutant and PPRYR mutant proteins were conjugated to SNAP capture resin using the conditions described in Example 2 (FIG. 10B). Binding to RNase B with high mannose N-glycan and Fetuin with sialyated complex N-glycan linked glycomolecules was analyzed in a single experiment. A mixture of denatured Fetuin and RNase B (denatured by boiling for 10 minutes in the presence of 1× Rapid PNGase F buffer (New England Biolabs, Ipswich, Mass.) were pulled down by the immobilized Fbs beads conjugated with equal amount of WT, GYR or PPRYR Fbs proteins (FIGS. 10A and 10B). The bound fetuin and RNase B were eluted by 1× gel loading buffer, and analyzed by -PAGE/Coomassie blue staining. The amount of fetuin or RNase B on -PAGE gels were quantified using Image J. The ratio of Fetuin to RNase B (Fetuin/RNase B) is arbitrarily defined as 1 in the input (FIG. 10A, Lane 7 and 10C). In low salt volatile buffer conditions, wild-type Fbs pulled down a very small amount of Fetuin (FIG. 10A, Lane1), and the Fetuin/RNase B is only 0.29 (FIG. 10C), which indicates biased N-glycan linked glycomolecule binding. […]

[6] = system: Fetuin; experiment: Fetuin pull-down assay (Affigel-Fetuin beads, SDS-PAGE, ImageJ); assay type: binding; settings: low salt buffer, cell lysates
Source text: Fetuin, which contains sialylated complex N-linked glycans, served as the complex N-linked glycomolecule in this example. Fetuin was conjugated to Affigel 15 resin (Bio-Rad, Hercules, Calif.), and then denatured by 6 M Guanidine HCL. After denaturation, the fetuin beads were washed with 50 bead volumes of low salt buffer to remove Guanidine HCL. This immobilized denatured Fetuin was used to screen Fbs mutants for improved affinity to complex N-linked glycomolecules in low salt conditions in a fetuin pull-down assay. In this assay, cell lysates containing the same amount of wild type or mutant Fbs protein were incubated with the same amount of fetuin beads at 4° C. for 1 hour. After incubation, the fetuin beads were washed three times with low salt buffer. The bound Fbs proteins were eluted by 1× gel loading buffer, and analyzed by SDS-PAGE. In the fetuin pull-down assay, the amount of Fbs mutant protein shown on the SDS-PAGE gel indicates the relative affinity of each Fbs mutant for binding to a complex N-linked glycomolecule. Fbs amino acid residue serine 155 was mutated to alanine to assess the effect on the interaction with complex N-linked glycomolecules. Mutation of Ser155 to alanine was expected to reduce the affinity of the interaction between Fbs and fetuin according to the published report of Tanaka et al. (Tanaka, et al. PNAS). […]

**Q.** Which Kd ([1]; read-out: Kd M3N2) does the source give for `CC(=O)N[C@H]1[C@H](O[C@H]2[C@H](O)[C@@H](NC(C)=O)C(O)O[C@@H]2CO)O[C@H](CO)[C@@H](O[C@@H]2O[C@H](CO[C@H]3O[C@H](CO)[C@@H](O)[C@H](O)[C@@H]3O)[C@@H](O)[C@H](O[C@H]3O[C@H](CO)[C@@H](O)[C@H](O)[C@@H]3O)[C@@H]2O)[C@@H]1O` (stereo partly drawn) [M3N2, Man(α1-3)(Man(α1-6))Man(β1-4)GlcNAc(β1-4)GlcNAc] here?
**A.** 123 ± 36 nM

**Q.** With `CC(=O)N[C@H]1[C@H](O[C@H]2[C@H](O)[C@@H](NC(C)=O)C(O)O[C@@H]2CO[C@@H]2O[C@@H](C)[C@@H](O)[C@@H](O)[C@@H]2O)O[C@H](CO)[C@@H](O[C@@H]2O[C@H](CO[C@H]3O[C@H](CO)[C@@H](O)[C@H](O)[C@@H]3O)[C@@H](O)[C@H](O[C@H]3O[C@H](CO)[C@@H](O)[C@H](O)[C@@H]3O)[C@@H]2O)[C@@H]1O` (stereo partly drawn) [M3N2F] as the molecule, how does the Kd ([1]; read-out: Kd M3N2F) read?
**A.** 128 ± 37 nM

B1: wtFbs: sugar binding domain (position 113 to 296) of human Fbs, SEQ ID NO: 2, tested as SNAP-tag fusion (SEQ ID NO: 3), free or on BG beads (protein)
chain: T1 sequence (Q9UK22 with tags, fused parts or gaps)
modifications: SNAP-tag fusion; optionally on BG beads
**Q.** Which “binding of 2-AB labeled M3N2” value [2] does the source give for B1 here?
**A.** disrupts the interaction

**Q.** And the “enrichment of non-glycosylated peptides” value [3]?
**A.** not enriched

**Q.** What about the “bound N-glycan linked glycomolecules released” value [4] of the same molecule?
**A.** less than 30%

**Q.** What about the “Fetuin/RNase B ratio” value ([5]; high salt volatile buffer (2 M ammonium acetate pH 7.5)) of the same molecule?
**A.** 0.92

**Q.** And the “Fetuin/RNase B ratio” value ([5]; low salt volatile buffer (50 mM ammonium acetate pH 7.5))?
**A.** 0.29

B2: S155A: human Fbs SBD variant with S155A mutation (protein)
chain: FYFLSKRRRNLLRNPCGEEDLEGWCDVEHGGDGWRVEELPGDAGVEFTHDESVKKYFASSFEWCRKAQVIDLQAEGYWEELLDTTQPAIVVKDWYSGRSDAGCLYELTVKLLSEHENVLAEFSSGQVAVPQDSDGGGWMEISHTFTDYGPGVRFVRFEHGGQDSVYWKGWFGARVTNSSVWVEP
modifications: left off: large carriers
notes: human Fbs SBD variant with S155A mutation
**Q.** With B2 as the molecule, how does the “fetuin pull-down relative to wild type Fbs” value [6] read?
**A.** 1.5 fold

B3: S155G: human Fbs SBD variant with S155G mutation (protein)
chain: B2 chain with A43G
modifications: left off: large carriers
notes: human Fbs SBD variant with S155G mutation
**Q.** With B3 as the molecule, how does the “fetuin pull-down relative to wild type Fbs” value [6] read?
**A.** 2.0 fold
